The results in this text go back to the DeepSol protein solubility set.

This series in a line: soluble on expression in E. coli; label from the status in PepcDB or PDB records.
Take “MTDILIDNTATETVRTLIRAFPLVPVSQPPEQGSYLLAEHDTVSLRLVGEKSSVIVDFASGAAQYRRTKGGGELIAKAVNHTAHPTVWDATAGLGRDSFVLASLGLAVTAFEQHPAVACLLSDGIRRALLNPETQNTAAHINLHFGNAAEQMPALVQTQGKPDIVYLDPMYPERRKSAAVKKEMTYFHRLVGEAQDEAALLHTARQTAKKRVVVKRPRLGEHLAGQDPAYQYTGKSTRFDVYLPYGTDKGLEHHHHHH”: the “soluble on expression in E. coli” value is on record as “soluble”. Take “MGSDKIHHHHHHGDDDDPVVPELNKLTKVSCYKDGASSPLFTADINYTSDGKISNINLGVDKLLFIYSDGKFSVTGIHSGEVIEEYTLSGNVITSKKISQENPYASNEIYVSDEYSYRYSGSNWVLTSWNARWPKEFGTGYEERSYPEYEKYTWENGNVVLYAQSLDSREMRYEYSVAEAPKNFPLRVIGSFSPVGFESVTPLNLLYGIQNRNLPIRAYTYTIPNQSEVKAEYKYTYTTVGDYITGMTIDENDGGTASSYKYTFEYNFAVK”: the “soluble on expression in E. coli” value is on record as “not soluble”. Under “MGSDKIHHHHHHMIFLNRYGFPDQSATSRMISSLAMSMAQRGMNVTVVTSREIHNHPGSVLPATETVRGIHIQRLSSGRFGRHNLMRRSIDYLLFQVLAFAWLLRNVRATDTVIVCTDPPLLSVMSSIAIRLKGALMVNWIMDLFPETAIELGFFRKRARWLAPWLTRARNWSLRSPGMVVCPTEKMAEFLFTQGIAKDRVSVLHHWSDGEEIYPVLPEGNSLRKAWGLQDVFVVGYSGNFGRAHDFGTMLAAAKRLEHRPDIRFLLIGGGHQHAAVKTVVQDLGLQNVIFKPLQPVENLAESLSVADVHLVSLLPELEHCIIPSKFYGIMAAGRPTIFIGDPDGEVPRILRAKRCGSNVEIGETDKLTGIIEELCDDPDTTKAMGDAARRLLCTDYSREKAADAWAALIAGLQTVEPSRPHLAQGISP” stands “not soluble”; under “MGASSSSSVSEKSIHQFTVKDSSGKEVDLSVYQGKVLLVVNVASKCGFTESNYTQLTELYRKYKDQGFVVLAFPCNQFLSQEPGTSEEAHQFACTRFKAEYPVFQKVRVNGQNAAPVYKFLKSKKPSFLGSRIKWNFTKFLVGKDGQVIDRYGTTVSPLSIQKDIEKALAQEL”, “soluble”.

For “MMKSIATLISVVLCSFSAWAQTITAAQDPWPPFVMENAQQKGLSVDIVTAAFATQGYTVEFTIMPWSRALNDVKEGKIDILPATWFTQERTAYLTYSDNYLTNQVKFIKKAGDNFEFAGLASLNGKKVGIVRGYGYGDEFMNDPSFFRPESTDLKQNLQKLQAGRIDLAVEDELVAKSIITEAGMNLADFAFTNQAISENPLHVTSGKANPRSEELVAAFNKGLAEIKANGTFDKLLADYGIK”, the “soluble on expression in E. coli” value is reported as “not soluble”. For “MAHHHHHHMKNKNKYDYLLKLLLVGDSSVGKSSILCRYSDNQFEEKVLSTIGIDFKVKYLKIDNKTIKVGIWDTAGQERFRTLTSAYYRNAHAIILVYDCTVRESFENLDVWINEIDKYSTNKNAIKMLVANKIDKPNHEVTKDEGKNFAFENNMLFCETSAKNDINITYCFEELIQQILNNPSLLELSIVTKNLKLGKKEESRSNCAC” the value was “soluble”; for “MPIPAPSPDARAVVTGASQNIGAALATELAARGHHLIVTARREDVLTELAARLADKYRVTVDVRPADLADPQERSKLADELAARPISILCANAGTATFGPIASLDLAGEKTQVQLNAVAVHDLTLAVLPGMIERKAGGILISGSAAGNSPIPYNATYAATKAFVNTFSESLRGELRGSGVHVTVLAPGPVRTELPDASEASLVEKLVPDFLWISTEHTARVSLNALERNKMRVVPGLTSKAMSVASQYAPRAIVAPIVGAFYKRLGGS”, “not soluble”; for “PLGLAPTASTTATLAMGDALAVALLIERGFRPEDFALFHPGGSLGKKLLLTVGDLMHSGDAVPLVGSATPIRDALFVITAKGLGITGVCAEDGALVGVVTDGDLRRSLGKGVDILNQPAGEIMTRNPKRINRSELAAKALQVMESHSITSLFVFDDTADNRPVGVIHLHDLLRA”, “not soluble”. For “DAVPEKSLNAALLCLQAMGALDDNGDVTEHGKKVYPLPIDALFADLVTRIPTKAEKEAMIDLAAALSVPAQLYQLQRGEAAEALEREEPLGCD” the value was “not soluble”; for “MGSDKIHHHHHHMKTQSQDRWFIWQLSEELEAKIRYREYGPPDSPFTPLLFIHGYGGMIEHWNDNIPSFDDRYRIYAMDLIGFGQSGKPNVRYSLALFAAQIKAFMHLKKLEKVTLVGHSMGAASSIIYAHHNPDSVRALVLANPSGLYGDSMDGVAKIFFGLVGSPLIGEMLFAAFANPVGVSQSLTPTYYNQKKVDLNLINQFSRPLQDRGAIFSYLSPSKRPHDFMLDGLKPCNYKGDAWLLWGAEDTALPPHKIIPEFQELLPQAGAYIIPKAGHCIHHDAHETFNNRLAQLLQRLE”, “not soluble”. As to “MGSDKIHHHHHHMKTCWQILEIESTTQIDIIRQAYLARLPLCHPETDPQGFKALRQAYEEALRLAVNPVEEADDEEKDATAEHEILRAFRTLLDSESDRFQPSAWQKFIQQLNTWNMEDVDQLRWPLCAIAIEARYLSLNCASLLAERLNWHSFNDSEGMDEEEREAFLEAIQAGDCFDFLSLLEYPVALQNQTVEYYFALERCCRYHPDYVTAFLAMEGPWFIPDDAKLHRKLLRWYSSVQTGMVELIPVAKQWQAEEPESEDARYYQCAQRLYCGEGESLLADLGAYWESYPSTQADNLLLQWSKRHCPDYFALLVMVIEARSMVDAQGQPLKYVPGESARTRLLWAEILHSGKLSPLGQSFIESLFFKRKAWAWWKSRVGSETEEDSPLLDLYRVAEQVVLEAFPKQEMLARLNTRLEGGDAHPLEAIITRMLLTKVKLEPEDEDVDEPTPENHEEKNDEGEKPQSITSIIKISLTVLVIGYALGKIAMLFS”, the “soluble on expression in E. coli” value is reported as “not soluble”. Regarding “MGSDKIHHHHHHMTAIVEPTWEERRTPEAAHEDDARSQYRKDYSRIIHSAALRRLQTKTQVLGLGDSDFYRTRLTHSLEVAQIGVGILLEIQRRFAGSNIEKYLPDERLLEAICLSHDYGHPPFGHGGERALNFAMREYGGFEGNAQTFRILSKLEKYSQNSGLNPTRRTLLGVLKYPTTYSNSMTNDFRRGTDIDKYPDAELKPPKCIYDCDLDVLDWVLKIFCSEDVTEFKKLDYKCKPLHKSLDCSLMETADDIAYTVHDLEDCIKLKLINREMWDAYIKSADYSEATRLEIEKWNQRIFSKEGNLVKQGISNMVYFFIHSVIQYEHEELSHPILKYGFKLGEEAARLRSAIQKIITNEVIKTHRVRVLESKGQRMIFSIFGELVRDPESFLPRETLDKYNKATGNLRMRVICDYVSGMTDEYATKTYQRFFTPKFGSVFDV”, the “soluble on expression in E. coli” value is “not soluble”. Under “MQLSWKDIPTVAPANDLLDIVLNRTQRKTPTVIRPGFKITRIRAFYMRKVKYTGEGFVEKFEDILKGFPNINDVHPFHRDLMDTLYEKNHYKISLAAISRAKSLVEQVARDYVRLLKFGQSLFQCKQLKRAALGRMATIVKKLRDPLAYLEQVRQHIGRLPSIDPNTRTLLICGYPNVGKSSFLRCITKSDVDVQPYAFTTKSLYVGHFDYKYLRFQAIDTPGILDRPTEEMNNIEMQSIYAIAHLRSCVLYFMDLSEQCGFTIEAQVKLFHSIKPLFANKSVMVVINKTDIIRPEDLDEERAQLLESVKEVPGVEIMTSSCQLEENVMEVRNKACEKLLASRIENKLKSQSRINNVLNKIHVAQPQARDDVKRTPFIPESVKNLKKYDPEDPNRRKLARDIEAENGGAGVFNVNLKDKYLLEDDEWKNDIMPEILDGKNVYDFLDPEIAAKLQALEEEEEKLENEGFYNSDDEEEIYDGFEASEVDDIKEKAAWIRNRQKTMIAEARNRKSLKNKAIMPRSKLTKSFGKMEEHMSTLGHDMSALQDKQNRAARKNRYVERGSDVVFGDQDALTASTENGVKLRQTDRLLDGVADGSMRSKADRMAKMERRERNRHAKQGESDRHNAVSLSKHLFSGKRGVGKTDFR” stands “not soluble”; under “MINSPRVCIQVQSVYIEAQSSPDNERYVFAYTVTIRNLGRAPVQLLGRYWLITNGNGRETEVQGEGVVGVQPLIAPGEEYQYTSGAIIETPLGTMQGHYEMIDENGVPFSIDIPVFRLAVPTLIHMGHHHHHHSH”, “not soluble”. Under “MGSDKIHHHHHHMAGVTKLTIAGFKSIRELRDFELRNLNVLIGANGAGKSNFIGFFKLLAEMYERRLQLFVQQQGGSDTLLHFSRKLTDKIEGELNFGTDYDHYRFELVVTNDNRLIFTNEQYWLHSRGSRPGEVGLLGGNKDESDLKKLAAQQKSPLIDDILNSTRVYHFHDTGEKAKVKQPHALNDTLRLKVDGANLAAYLRMLKTEHAESYRQIVDTIRLVAPFFDDFVFRADSASKIQLEWTERGDPDTPFTAHALSDGTLRFICLGTLLLQPWELMPATILIDEPELGLHPYAINLLADLLKRASEQKQLIVSTQSVELLDRLEPEDVIVVDRKDNASTFHRLDAVQLQDWLDDYSLGDLWKQNVLGGRPA” stands “not soluble”; under “MSLEDRIDQVEQAITKSRRYQTVAPATVRRLARAALVAARGDVPDAVKRTKRGLHEIYGAFLPPSPPNYAALLRQLDSAVDAGDDEAVRAALRRAMSVHVSTRERLPHLAEFYQEIFRHVPQPNTLRDLACGLNPLAAPWMGLSDQTVYVASDIDARLIGFVDAALTRLGVAHRTSVVDLLEDRLDEPTDVTLLLKTLPCLETQRRGSGWEVIDIVNSPIIVVTFPTKSLGQRSKGMFQNYSQSFESQARERSCRIQRLEIGNELIYVIQKEGHHHHHH”, “soluble”.

On to “MFLNTNEILDYSALKYMPNLKSLTVANAKIKDPSFFANLKQLNHLALRGNEFSDVTPLVKMDHLDSLDLSNNKITNVAPLIEMKNVKSLYLSGNQIEDVTALAKMEQLDYLNLANNKITNVAPLSALKNVTYLTLAGNQIEDIKPLYSLPLTDLVLTRNKVKDLSGIEQMKQLEELWIGKNEIKDVTPLSKMTQLKQLHLPNNELKDITPLSSLVNLQKLDLEANYISDLTPASNLKKLVFLSFVANEIRDVRPVIELSKTAYINVQNQKVFLEETEVNKEVKVPIYEKDGKISTKIRLKGEGGTYSNDAVKWSTPGEKVYEFGVKDPFADTGIFFTGSVIQNVVESKADNTSKEDNTSKEDAKVEVVEFKDVPKGHWSEEAIHYLAKENIFKGYGNGQFGFGDSITRGQVASLVQRYLKLENKVEQKERFTDTKGHMFEQDIATVAQAGIMQGDGTGEFRPDGVLTRYEMSVVLYKVFQLKEDGNNKVNFKDVPTGHWAEGYVKALVDNNISKGDGKERFLGDDFVTREQYAQFLYNAITK”, for which the “soluble on expression in E. coli” value was “not soluble”. Under “MGSDKIHHHHHHMFIENYCPISADRISFTRQQGSDFAKQVADDFNPLHNIDAKRFCVPGDLLFSIIIAKSGLHKNMTFDFSGMVSDDVHLTFPQEIDESFDIKDDKDKTCLSVHVSGDKTHESVLINALTKAYVDFSGHTFPDILVKLMADNSVMINPARPMVMYQSMSIDLHTLTAETVTLKLAKTSLSIEGKRGDAWLEFDLLSNDKVIGHGKKHMLLSGLRTYEQETIDAMVNQYRDSKKNYQA” stands “not soluble”.

For the sequence “MEKPSPTRRQTSSLSTISNGMTMTNDNRDTTNTNSGSTSSNNSQPSSSSTPPAASGPVTDRTKVNYVPKSDDPSSFQYYPDDPENPVNKYKFALKADSQYYDPCEESSKLSFQCLERNDYDRSKCQEYFDAYRECKKQWLTARRKNRQQWE”, the “soluble on expression in E. coli” value is given as “soluble”. Under “MIGELVKDKILIKNIEDARLIYKMGYYGKPIGISKPKSAEEINSELILSLIEGVYLVKKGKLEIVSNGERLDFERLYQIGVTQIPRFRILYSVYEDLREKGYVVRSGIKYGADFAVYTIGPGIEHAPYLVIALDENSQISSNEILGFGRVSHSTRKELILGIVNLTNGKIRYIMFKWLKM” stands “soluble”.
